Target: the molecule itself
Assay: atomic force microscopy; alternating contact mode on DOPC/DOPS (1:1) supported lipid bilayers on mica, 10 mM TRIS pH 7.4, 140 mM NaCl, 2 mM Ca2+; 40 nM ANXA4 added with 40 nM ANXA1-GFP or ANXA2-GFP; 250 nm x 250 nm scans of the lower (ANXA4) domains, Fourier transform

B1: annexin A4 (natural protein, UniProt P09525 1-319, looked up)
chain: MATKGGTVKAASGFNAMEDAQTLRKAMKGLGTDEDAIISVLAYRNTAQRQEIRTAYKSTIGRDLIDDLKSELSGNFEQVIVGMMTPTVLYDVQELRRAMKGAGTDEGCLIEILASRTPEEIRRISQTYQQQYGRSLEDDIRSDTSFMFQRVLVSLSAGGRDEGNYLDDALVRQDAQDLYEAGEKKWGTDEVKFLTVLCSRNRNHLLHVFDEYKRISQKDIEQSIKSETSGSFEDALLAIVKCMRNKSAYFAEKLYKSMKGLGTDDNTLIRVMVSRAEIDMLDIRAHFKRLYGKSLYSFIKGDTSGDYRKVLLVLCGGDD
notes: annexin A4 (ANXA4), unlabelled recombinant protein from a PCR-amplified cDNA in pETM11-SUMO3; the introduction gives 320 amino acids for ANXA4 (cited); also called ANXA4; recombinant ANXA4; source: E. coli BL21 (DE3), purified (Ni-NTA IMAC, Superdex 200 SEC); not shown: 6xHis, N-terminal, cleaved; SUMO3 domain, N-terminal, cleaved
stoichiometry N: 3
